# Results from patent publication US20260015399A1 (Boehringer Ingelheim, published 2026).
# *1 amine or outer side, *2 acyl side, *3 side chain or, on linkers, in order; H or OH if unused. Side-chain parts run from the residue outwards. The star is where a group is joined. C18 diacid = O=C(O)CCCCCCCCCCCCCCCCC(=O)*; γGlu = O=C(O)[C@H](CCC(=O)[*:2])N[*:1]; Isovaleryl = CC(C)CC(=O)*; Ahx = NCCCCCC(=O)O
# T1: human NPY2 receptor (human, UniProt P49146 1-381)
# T1 construct: whole, on cells; also called hNPY2-R; hNPY2R
# T1 sequence (looked up): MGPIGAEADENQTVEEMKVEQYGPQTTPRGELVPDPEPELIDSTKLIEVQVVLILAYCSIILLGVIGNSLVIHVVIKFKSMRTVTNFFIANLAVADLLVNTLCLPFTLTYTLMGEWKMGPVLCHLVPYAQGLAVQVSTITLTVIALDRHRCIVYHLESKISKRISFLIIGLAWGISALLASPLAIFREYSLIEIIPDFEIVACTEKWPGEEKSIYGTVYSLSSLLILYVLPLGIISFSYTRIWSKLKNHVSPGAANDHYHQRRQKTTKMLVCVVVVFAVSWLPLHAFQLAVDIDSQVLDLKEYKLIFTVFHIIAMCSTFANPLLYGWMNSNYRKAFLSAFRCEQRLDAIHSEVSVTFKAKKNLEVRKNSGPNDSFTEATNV
# B1: Compound 112 (peptide)
# peptide: Isovaleryl-APEK([Ahx-γGlu-C18 diacid])PEEDAEPEEIQRYYVSLRHYYNWLTRQRY-NH2
# SMILES: CC[C@H](C)[C@H](NC(=O)[C@H](CCC(=O)O)NC(=O)[C@H](CCC(=O)O)NC(=O)[C@@H]1CCCN1C(=O)[C@H](CCC(=O)O)NC(=O)[C@H](C)NC(=O)[C@H](CC(=O)O)NC(=O)[C@H](CCC(=O)O)NC(=O)[C@H](CCC(=O)O)NC(=O)[C@@H]1CCCN1C(=O)[C@H](CCCCNC(=O)CCCCCNC(=O)CC[C@H](NC(=O)CCCCCCCCCCCCCCCCC(=O)O)C(=O)O)NC(=O)[C@H](CCC(=O)O)NC(=O)[C@@H]1CCCN1C(=O)[C@H](C)NC(=O)CC(C)C)C(=O)N[C@@H](CCC(N)=O)C(=O)N[C@@H](CCCNC(=N)N)C(=O)N[C@@H](Cc1ccc(O)cc1)C(=O)N[C@@H](Cc1ccc(O)cc1)C(=O)N[C@H](C(=O)N[C@@H](CO)C(=O)N[C@@H](CC(C)C)C(=O)N[C@@H](CCCNC(=N)N)C(=O)N[C@@H](Cc1c[nH]cn1)C(=O)N[C@@H](Cc1ccc(O)cc1)C(=O)N[C@@H](Cc1ccc(O)cc1)C(=O)N[C@@H](CC(N)=O)C(=O)N[C@@H](Cc1c[nH]c2ccccc12)C(=O)N[C@@H](CC(C)C)C(=O)N[C@H](C(=O)N[C@@H](CCCNC(=N)N)C(=O)N[C@@H](CCC(N)=O)C(=O)N[C@@H](CCCNC(=N)N)C(=O)N[C@@H](Cc1ccc(O)cc1)C(N)=O)[C@@H](C)O)C(C)C
# B2: Compound 113 (peptide)
# peptide: Isovaleryl-APEK([Ahx-γGlu-C18 diacid])PEEDATPEEIQRYYVSLRHYQNWLTRQRY-NH2
# SMILES: CC[C@H](C)[C@H](NC(=O)[C@H](CCC(=O)O)NC(=O)[C@H](CCC(=O)O)NC(=O)[C@@H]1CCCN1C(=O)[C@@H](NC(=O)[C@H](C)NC(=O)[C@H](CC(=O)O)NC(=O)[C@H](CCC(=O)O)NC(=O)[C@H](CCC(=O)O)NC(=O)[C@@H]1CCCN1C(=O)[C@H](CCCCNC(=O)CCCCCNC(=O)CC[C@H](NC(=O)CCCCCCCCCCCCCCCCC(=O)O)C(=O)O)NC(=O)[C@H](CCC(=O)O)NC(=O)[C@@H]1CCCN1C(=O)[C@H](C)NC(=O)CC(C)C)[C@@H](C)O)C(=O)N[C@@H](CCC(N)=O)C(=O)N[C@@H](CCCNC(=N)N)C(=O)N[C@@H](Cc1ccc(O)cc1)C(=O)N[C@@H](Cc1ccc(O)cc1)C(=O)N[C@H](C(=O)N[C@@H](CO)C(=O)N[C@@H](CC(C)C)C(=O)N[C@@H](CCCNC(=N)N)C(=O)N[C@@H](Cc1c[nH]cn1)C(=O)N[C@@H](Cc1ccc(O)cc1)C(=O)N[C@@H](CCC(N)=O)C(=O)N[C@@H](CC(N)=O)C(=O)N[C@@H](Cc1c[nH]c2ccccc12)C(=O)N[C@@H](CC(C)C)C(=O)N[C@H](C(=O)N[C@@H](CCCNC(=N)N)C(=O)N[C@@H](CCC(N)=O)C(=O)N[C@@H](CCCNC(=N)N)C(=O)N[C@@H](Cc1ccc(O)cc1)C(N)=O)[C@@H](C)O)C(C)C
# B3: Compound 119 (peptide)
# peptide: Isovaleryl-APEK([Ahx-γGlu-C18 diacid])PEEDATPEESQRYYVSLRHYYNWLTRQRY-NH2
# SMILES: CC(C)CC(=O)N[C@@H](C)C(=O)N1CCC[C@H]1C(=O)N[C@@H](CCC(=O)O)C(=O)N[C@@H](CCCCNC(=O)CCCCCNC(=O)CC[C@H](NC(=O)CCCCCCCCCCCCCCCCC(=O)O)C(=O)O)C(=O)N1CCC[C@H]1C(=O)N[C@@H](CCC(=O)O)C(=O)N[C@@H](CCC(=O)O)C(=O)N[C@@H](CC(=O)O)C(=O)N[C@@H](C)C(=O)N[C@H](C(=O)N1CCC[C@H]1C(=O)N[C@@H](CCC(=O)O)C(=O)N[C@@H](CCC(=O)O)C(=O)N[C@@H](CO)C(=O)N[C@@H](CCC(N)=O)C(=O)N[C@@H](CCCNC(=N)N)C(=O)N[C@@H](Cc1ccc(O)cc1)C(=O)N[C@@H](Cc1ccc(O)cc1)C(=O)N[C@H](C(=O)N[C@@H](CO)C(=O)N[C@@H](CC(C)C)C(=O)N[C@@H](CCCNC(=N)N)C(=O)N[C@@H](Cc1c[nH]cn1)C(=O)N[C@@H](Cc1ccc(O)cc1)C(=O)N[C@@H](Cc1ccc(O)cc1)C(=O)N[C@@H](CC(N)=O)C(=O)N[C@@H](Cc1c[nH]c2ccccc12)C(=O)N[C@@H](CC(C)C)C(=O)N[C@H](C(=O)N[C@@H](CCCNC(=N)N)C(=O)N[C@@H](CCC(N)=O)C(=O)N[C@@H](CCCNC(=N)N)C(=O)N[C@@H](Cc1ccc(O)cc1)C(N)=O)[C@@H](C)O)C(C)C)[C@@H](C)O
# B4: Compound 120 (peptide)
# peptide: Isovaleryl-APAK([Ahx-γGlu-C18 diacid])PEEAATPEEIQRYYVALRHYYNWLTRQRY-NH2
# SMILES: CC[C@H](C)[C@H](NC(=O)[C@H](CCC(=O)O)NC(=O)[C@H](CCC(=O)O)NC(=O)[C@@H]1CCCN1C(=O)[C@@H](NC(=O)[C@H](C)NC(=O)[C@H](C)NC(=O)[C@H](CCC(=O)O)NC(=O)[C@H](CCC(=O)O)NC(=O)[C@@H]1CCCN1C(=O)[C@H](CCCCNC(=O)CCCCCNC(=O)CC[C@H](NC(=O)CCCCCCCCCCCCCCCCC(=O)O)C(=O)O)NC(=O)[C@H](C)NC(=O)[C@@H]1CCCN1C(=O)[C@H](C)NC(=O)CC(C)C)[C@@H](C)O)C(=O)N[C@@H](CCC(N)=O)C(=O)N[C@@H](CCCNC(=N)N)C(=O)N[C@@H](Cc1ccc(O)cc1)C(=O)N[C@@H](Cc1ccc(O)cc1)C(=O)N[C@H](C(=O)N[C@@H](C)C(=O)N[C@@H](CC(C)C)C(=O)N[C@@H](CCCNC(=N)N)C(=O)N[C@@H](Cc1c[nH]cn1)C(=O)N[C@@H](Cc1ccc(O)cc1)C(=O)N[C@@H](Cc1ccc(O)cc1)C(=O)N[C@@H](CC(N)=O)C(=O)N[C@@H](Cc1c[nH]c2ccccc12)C(=O)N[C@@H](CC(C)C)C(=O)N[C@H](C(=O)N[C@@H](CCCNC(=N)N)C(=O)N[C@@H](CCC(N)=O)C(=O)N[C@@H](CCCNC(=N)N)C(=O)N[C@@H](Cc1ccc(O)cc1)C(N)=O)[C@@H](C)O)C(C)C
# B5: Compound 121 (peptide)
# peptide: Isovaleryl-APEK([Ahx-γGlu-C18 diacid])PEADASPEELQRYYVQLRHYYNWLTRQRY-NH2
# SMILES: CC(C)CC(=O)N[C@@H](C)C(=O)N1CCC[C@H]1C(=O)N[C@@H](CCC(=O)O)C(=O)N[C@@H](CCCCNC(=O)CCCCCNC(=O)CC[C@H](NC(=O)CCCCCCCCCCCCCCCCC(=O)O)C(=O)O)C(=O)N1CCC[C@H]1C(=O)N[C@@H](CCC(=O)O)C(=O)N[C@@H](C)C(=O)N[C@@H](CC(=O)O)C(=O)N[C@@H](C)C(=O)N[C@@H](CO)C(=O)N1CCC[C@H]1C(=O)N[C@@H](CCC(=O)O)C(=O)N[C@@H](CCC(=O)O)C(=O)N[C@@H](CC(C)C)C(=O)N[C@@H](CCC(N)=O)C(=O)N[C@@H](CCCNC(=N)N)C(=O)N[C@@H](Cc1ccc(O)cc1)C(=O)N[C@@H](Cc1ccc(O)cc1)C(=O)N[C@H](C(=O)N[C@@H](CCC(N)=O)C(=O)N[C@@H](CC(C)C)C(=O)N[C@@H](CCCNC(=N)N)C(=O)N[C@@H](Cc1c[nH]cn1)C(=O)N[C@@H](Cc1ccc(O)cc1)C(=O)N[C@@H](Cc1ccc(O)cc1)C(=O)N[C@@H](CC(N)=O)C(=O)N[C@@H](Cc1c[nH]c2ccccc12)C(=O)N[C@@H](CC(C)C)C(=O)N[C@H](C(=O)N[C@@H](CCCNC(=N)N)C(=O)N[C@@H](CCC(N)=O)C(=O)N[C@@H](CCCNC(=N)N)C(=O)N[C@@H](Cc1ccc(O)cc1)C(N)=O)[C@@H](C)O)C(C)C
# Target: T1, human NPY2 receptor
# Assay: RLB: displacement of 125I-PYY(1-36) from hNPY2R membranes
row,Binder,Ki
1,B1,4.28 nM
2,B2,3.53 nM
3,B3,5.73 nM
4,B4,1.49 nM
5,B5,1.45 nM
